Measured values published in patent US20240132624A1 (Ablynx, published 2024).

How the values were obtained:
human FcRn/b2M [1] = target: T1, human FcRn/b2M (human, UniProt P61769 21-119, biotinylated); assay: SPR pH 6.0
T1 construct: bought recombinant biotinylated protein (ACRO FCM-H82W4 or Immunitrack ITF01); also called hFcRn; hFcRn/hb2M

human FcRn/b2M [2] = target: T1, human FcRn/b2M; assay: SPR pH 6.0; remark: listed apart in the source
cyno FcRn/b2M [3] = target: T2, cyno FcRn/b2M (cyno, UniProt Q8SPV9 24-297; Q8SPW0 21-119, biotinylated); assay: SPR pH 6.0
T2 construct: bought recombinant biotinylated protein (Immunitrack ITF05 or ACRO FCM-C82W5); also called cFcRn; cFcRn/cb2M

human FcRn/b2M [4] = target: T1, human FcRn/b2M; assay: SPR pH 7.4
cyno FcRn/b2M [5] = target: T2, cyno FcRn/b2M; assay: SPR pH 7.4
human FcRn/b2M [6] = target: T1, human FcRn/b2M; assay: SPR; pH 7.4 vs pH 6.0
cyno FcRn/b2M [7] = target: T2, cyno FcRn/b2M; assay: SPR; pH 7.4 vs pH 6.0
human FcRn/b2M [8] = target: T1, human FcRn/b2M; assay: SPR pH 6.0; remark: listed apart in the source
Protocol: (§1) The affinity of the purified, multivalent ISVD constructs for human and cyno FcRn was determined on the MASS-2 (Sierra sensors, Gmbh) instrument, hFcRn/hb2M and cFcRn/cb2M was captured on a Biotin-tag Capture Chip or a High Capacity Amine Chip (pre-immobilized with neutravidin). The ISVD constructs were injected at 6 different concentrations (between 1 and 4000 nM) and allowed to associate for 120 s at 45 μL/min and dissociate for 600 s-3600 s at 45 μL/min. […] Evaluation of the sensorgrams was based on the 1:1 Langmuir dissociation model simultaneously fitting on and off-rates.

cyno FcRn/b2M [9] = target: T2, cyno FcRn/b2M; assay: SPR pH 6.0; remark: listed apart in the source
Protocol: as §1

human FcRn/b2M [10] = target: T1, human FcRn/b2M; assay: SPR pH 7.4; remark: listed apart in the source
Protocol: as §1

cyno FcRn/b2M [11] = target: T2, cyno FcRn/b2M; assay: SPR pH 7.4; remark: listed apart in the source
Protocol: as §1

human serum albumin [12] = target: T3, human serum albumin (human, UniProt P02768 25-609); assay: SPR pH 6.0
T3 construct: also called HSA
Protocol: (§2) The affinity of the purified, multivalent ISVD constructs for human and mouse serum albumin (HSA and MSA, respectively) was determined on the ProteOn XPR36 (BioRad Laboratories, Inc.) instrument. […] The ISVD constructs were injected at 6 different concentrations (between 1 and 500 nM) and allowed to associate for 120 s at 45 μL/min and dissociate for 600s-3600s at 45 μL/min. Evaluation of the sensorgrams was based on the 1:1 Langmuir dissociation model simultaneously fitting on and off-rates.

mouse serum albumin [13] = target: T4, mouse serum albumin (mouse, UniProt P07724 25-608); assay: SPR pH 6.0
T4 construct: also called MSA
Protocol: as §2

human serum albumin [14] = target: T3, human serum albumin; assay: SPR pH 7.4
Protocol: as §2

mouse serum albumin [15] = target: T4, mouse serum albumin; assay: SPR pH 7.4
Protocol: as §2

human FcRn/b2M [16] = target: T1, human FcRn/b2M; assay: SPR pH 6.0; remark: listed apart in the source
Protocol: (§3) The affinities of the monovalent purified, tagless ISVDs were determined for human FcRn on ProteOn XPR36 (BioRad Laboratories, Inc.), the MASS-2 (Sierra sensors, Gmbh) or SPR-32 (Bruker Corporation) instrument. In the same way, the affinities of bivalent ISVD constructs comprising two of the same monovalent building blocks of purified, tagless ISVDs were determined for human FcRn on ProteOn XPR36 (BioRad Laboratories, Inc.), the MASS-2 (Sierra sensors, Gmbh) or SPR-32 (Bruker Corporation) instrument. For affinity measurements, ˜1000-3000RU (hFcRn/hb2M; ACRO Biosystems FCM-H82W4) was captured on a ProteOn NLC sensor (ProteOn) or Biotin-tag Capture Chip or a High Capacity Amine Chip (pre-immobilized with neutravidin; MASS-2). The ISVDs were injected at 6 different concentrations (between 1 and 4000 nM) and allowed to associate for 120s at 45 μL/min and dissociate for 600s-3600s at 45 μL/min. […] Evaluation of the sensorgrams was based on the 1:1 Langmuir dissociation model simultaneously fitting on and off-rates.

cyno FcRn/b2M [17] = target: T2, cyno FcRn/b2M; assay: SPR pH 6.0; remark: listed apart in the source
Protocol: as §3

human FcRn/b2M [18] = target: T1, human FcRn/b2M; assay: SPR pH 7.4; remark: listed apart in the source
Protocol: as §3

cyno FcRn/b2M [19] = target: T2, cyno FcRn/b2M; assay: SPR pH 7.4; remark: listed apart in the source
Protocol: as §3

T2 sequence (Q8SPV9 24-297 limits assumed, chain 1 of 2): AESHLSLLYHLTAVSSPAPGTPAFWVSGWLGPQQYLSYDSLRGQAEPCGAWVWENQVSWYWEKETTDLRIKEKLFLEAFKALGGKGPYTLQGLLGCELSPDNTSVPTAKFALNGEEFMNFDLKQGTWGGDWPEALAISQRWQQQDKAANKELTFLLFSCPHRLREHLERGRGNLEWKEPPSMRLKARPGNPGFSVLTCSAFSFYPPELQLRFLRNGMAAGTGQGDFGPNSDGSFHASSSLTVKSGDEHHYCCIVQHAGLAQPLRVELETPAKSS
T2 sequence (Q8SPW0 21-119 limits assumed, chain 2 of 2): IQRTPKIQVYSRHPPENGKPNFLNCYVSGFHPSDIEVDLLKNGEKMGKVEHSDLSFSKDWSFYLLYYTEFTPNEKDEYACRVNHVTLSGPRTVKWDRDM
T4 sequence (P07724 25-608 limits assumed): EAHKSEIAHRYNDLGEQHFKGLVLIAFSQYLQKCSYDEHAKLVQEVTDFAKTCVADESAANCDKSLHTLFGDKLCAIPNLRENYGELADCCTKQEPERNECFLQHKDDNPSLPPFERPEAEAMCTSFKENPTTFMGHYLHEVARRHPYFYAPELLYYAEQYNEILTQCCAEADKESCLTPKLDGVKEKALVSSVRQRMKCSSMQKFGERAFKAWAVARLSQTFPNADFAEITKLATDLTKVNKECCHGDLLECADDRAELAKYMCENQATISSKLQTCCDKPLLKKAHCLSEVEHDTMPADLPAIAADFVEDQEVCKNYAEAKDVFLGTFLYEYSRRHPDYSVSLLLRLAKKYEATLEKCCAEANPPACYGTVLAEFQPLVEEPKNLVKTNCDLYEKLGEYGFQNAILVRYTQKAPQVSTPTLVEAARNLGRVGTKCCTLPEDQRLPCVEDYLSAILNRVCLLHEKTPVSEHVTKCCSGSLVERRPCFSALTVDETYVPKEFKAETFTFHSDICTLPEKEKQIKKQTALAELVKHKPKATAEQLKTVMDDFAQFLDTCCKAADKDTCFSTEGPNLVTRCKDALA

Binder | Kd (cyno FcRn/b2M [3]) | Kd (cyno FcRn/b2M [5]) | Kd (human FcRn/b2M [16]) | Kd (cyno FcRn/b2M [17]) | Kd (human FcRn/b2M [18]) | Kd (cyno FcRn/b2M [19]) | further results
T026301064 (VHH, name in Kabat numbering, tagless) VHH: EVQLVESGGGVVQPGGSLRLSCAASGFTFSSYDMYWVRQAPGKGLEWVSAISQGGGSTDYADSVKGRFTISRDNSKNTLYLQMNSLRPEDTALYYCAADTLYTSLTWYSYWGQGTLVTVSS | 3.8 nM | 2400 nM | – | – | – | – | koff (human FcRn/b2M [1]): 0.00046 s⁻¹; Kd (human FcRn/b2M [2]): 9.4 nM; Kd (human FcRn/b2M [4]): 3700 nM; KD ratio pH 7.4/6.0 (human FcRn/b2M [6]): 394; KD ratio pH 7.4/6.0 (cyno FcRn/b2M [7]): 632
T026301266 (other, tetravalent ISVD construct; also called X-FcRn-Y-ALB23002) VHH 1: EVQLVESGGGVVQPGGSLRLSCAASGFTFSSYAMYWVRQAPGKGLEWVSAISSGGGSTDYADSVKGRFTISRDNSKNTLYLQMNSLRPEDTALYYCAADTLYTSLTWYSYWGQGTLVTVSS VHH 2: EVQLVESGGGVVQPGGSLRLSCAASGFTFRSFGMSWVRQAPGKGPEWVSSISGSGSDTLYADSVKGRFTISRDNSKNTLYLQMNSLRPEDTALYYCTIGGSLSRSSQGTLVTVSSA | – | – | – | – | – | – | Kd (human FcRn/b2M [8]): 41 nM; Kd (cyno FcRn/b2M [9]): 26 nM; Kd (human FcRn/b2M [10]): 1600 nM; Kd (cyno FcRn/b2M [11]): 880 nM; Kd (human serum albumin [12]): 12 nM; koff (mouse serum albumin [13]): 0.053 s⁻¹; Kd (human serum albumin [14]): 8.6 nM; koff (mouse serum albumin [15]): 0.048 s⁻¹
T026301234 (other, not shown: small tags and cut ends, pentavalent ISVD construct) DVQLVESGGGVVQPGGSLRLSCAASGFTFSSYAMYWVRQAPGKGLEWVSAISSGGGSTDYADSVKGRFTISRDNSKNTLYLQMNSLRPEDTALYYCAADTLYTSLTWYSYWGQGTLVTVSS | – | – | 26 nM | 14 nM | 740 nM | 490 nM | –
T026301230 (other, name in Kabat numbering, not shown: small tags and cut ends, pentavalent ISVD construct) DVQLVESGGGVVQPGGSLRLSCAASGFTFSSYAMYWVRQAPGKGLEWVSAISSGGGSTDYADSVKGRFTISRDNSKNTLYLQMNSLRPEDTALYYCAADTLYTSLTSYSYWGQGTLVTVSS | – | – | 100 nM | 54 nM | 670 nM | 580 nM | –
T026301233 (other, name in Kabat numbering, not shown: small tags and cut ends, pentavalent ISVD construct) DVQLVESGGGVVQPGGSLRLSCAASTFTFSSYAMYWVRQAPGKGLEWVSAISQGGGSTDYADSVKGRFTISRDNSKNTLYLQMNSLRPEDTALYYCAADTLYTSLTSYSYWGQGTLVTVSS | – | – | 490 nM | 270 nM | 750 nM | 420 nM | –

Now from value to binder, other results behind:

Kd (cyno FcRn/b2M [3]) | Kd (cyno FcRn/b2M [5]) | Kd (human FcRn/b2M [16]) | Kd (cyno FcRn/b2M [17]) | Kd (human FcRn/b2M [18]) | Kd (cyno FcRn/b2M [19]) | Binder | further results
76 nM | 5900 nM | – | – | – | – | T026301079 (VHH, name in Kabat numbering, tagless) VHH: EVQLVESGGGVVQPGGSLRLSCAASGFTFSSYAMYWVRQAPGKGLEWVSAISQGGGSTDYADSVKGRFTISRDNSKNTLYLQMNSLRPEDTALYYCAADTLYTSLTSYSYWGQGTLVTVSS | koff (human FcRn/b2M [1]): 0.0065 s⁻¹; Kd (human FcRn/b2M [2]): 120 nM; KD ratio pH 7.4/6.0 (cyno FcRn/b2M [7]): 78
21 nM | 3100 nM | – | – | – | – | T026301075 (VHH, name in Kabat numbering, tagless) VHH: EVQLVESGGGVVQPGGSLRLSCAASTFTFSEYAMYWVRQAPGKGLEWVSAISSGGGSTDYADSVKGRFTISRDNSKNTLYLQMNSLRPEDTALYYCAADTLYTSLTWYSYWGQGTLVTVSS | Kd (human FcRn/b2M [4]): 5600 nM
